Laboratory results: patent publication US20220396614A1
pKd: −log10 of the molar value.

Biological target: NANP 5.5-mer peptide, NP(NANP)5, representative of the PfCSP central repeat (Plasmodium falciparum (NF54))
Assay: SPR (FIG. 5E)

| Substance | pKd | fold lower affinity than mAb 4493 |
| --- | --- | --- |
| mAb 317 (antibody) | > 10.00 | – |
| mAb CIS43 (antibody) | – | 100 fold |
